Reference: article PMC7507306, “Highly active rubiscos discovered by systematic interrogation of natural sequence diversity” (The EMBO Journal, 2020)
One block for each molecule: values may come before it.

Assays:
Assay in all cases: SEC; analytical gel filtration of the purified rubisco; oligomer state read from the elution; conditions not shown (Appendix)
[1] = molecular target: Zetaproteobacterium rubisco (form-II) (Zetaproteobacterium)
[2] = molecular target: Zetaproteobacteria_53_45 rubisco (form-II) (Zetaproteobacteria_53_45)
[3] = molecular target: Sulfurivirga caldicuralii rubisco (form-II) (Sulfurivirga caldicuralii)
[4] = molecular target: Gallionella sp. rubisco (form-II) (Gallionella sp.)
[5] = molecular target: Acidithiobacillus ferrooxidans rubisco (form-II) (Acidithiobacillus ferrooxidans)
[6] = molecular target: the molecule itself

Molecule: Zetaproteobacterium rubisco (form-II) (enzyme)
- stoichiometry N [1]: 2

Molecule: Gallionella sp. rubisco (form-II) (enzyme)
- stoichiometry N [4]: 2

B1: Hydrogenovibrio marinus rubisco (form-II) (enzyme, UniProt Q59462 1-463, looked up)
chain: MDQSNRYADLTLTEEKLVADGNHLLVAYRLKPAAGYGFLEVAAHVAAESSTGTNVEVSTTDDFTRGVDALVYEIDEAAFGDKGGLMKIAYPVDLFDPNLIDGHYNVSHMWSLILGNNQGMGDHEGLRMLDFLVPEKMVKRFDGPATDISDLWKVLGRPEVDGGYIAGTIIKPKLGLRPEPFAKACYDFWLGGDFIKNDEPQANQNFCPMEVVIPKVAEAMDRAQQATGQAKLFSANVTADFHEEMIKRGEYVLGEFAKYGNEKHVAFLVDGFVTGPAGVTTSRRAFPDTYLHFHRAGHGAVTSYKSPMGMDPLCYMKLARLMGASGIHTGTMGYGKMEGHNDERVLAYMLERDECQGPYFYQKWYGMKPTTPIISGGMDALRLPGFFENLGHGNVINTCGGGSFGHIDSPAAGGISLGQAYACWKTGAEPIEAPREFARAFESFPGDADKIFPGWREKLGVHK
notes: form-II rubisco large subunit from Hydrogenovibrio marinus; scarless tag cleavage gives the native rubisco; source: E. coli BL21(DE3), purified (nickel magnetic beads, eluted by on-bead cleavage of the SUMO tag with bdSENP1); not shown: 14xHis, N-terminal, cleaved; bdSUMO, N-terminal, cleaved
- stoichiometry N [6]: 2

The next lines start with the values.

- stoichiometry N [2]: 2
Molecule: Zetaproteobacteria_53_45 rubisco (form-II) (enzyme)

- stoichiometry N [3]: 4
Molecule: Sulfurivirga caldicuralii rubisco (form-II) (enzyme)

- stoichiometry N [5]: 6
Molecule: Acidithiobacillus ferrooxidans rubisco (form-II) (enzyme)
